Measurements reported in publication PMC7719688.

Target: T1, ArcA-His6 (acetyl phosphate present or absent) (Escherichia coli K1 Rs218 (O18:H7:K1)) (UniProt P0A9Q1)
T1 sequence: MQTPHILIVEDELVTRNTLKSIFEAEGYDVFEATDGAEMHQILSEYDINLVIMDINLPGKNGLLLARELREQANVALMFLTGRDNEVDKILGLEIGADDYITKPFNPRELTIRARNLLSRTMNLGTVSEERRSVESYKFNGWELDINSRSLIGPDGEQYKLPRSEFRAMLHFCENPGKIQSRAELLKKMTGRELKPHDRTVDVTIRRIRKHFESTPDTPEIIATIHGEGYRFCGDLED
Experiment: EMSA
Conditions: 10 mM Tris-HCl pH 7.4, 50 mM KCl, 0.1 mM EDTA, 0.2 mM DTT

ATTTGGTTGTAACACGGCGTATGGCACATGCGTCGTTAGCGGTCTGGGGACGTTAAAGGGGACAATCCACTCCTTGCTCGAGCAGACAAACCAGGTAGCCGGAATGTGCAAGTCAATGAGGATGCTGATAAGACGCCTAACCAGCGTGGCGATTCGGTTTGACGCCTGGGAAGAGACCAGGGTGCAACGATGAGGGCATTTATGGAACCGCGACAAAGTGTGGTGCCGTAACTGGCTAAGTGCTCTCAGC (double strand) [sRNA-17 promoter (PsRNA-17)]
binding ([…]): binds

ACGAACTGTTCACCGCCACTCGCGGTCAGGGCGCACAGCTGAACGGCTACCGTCTGCGCGGCAGCACCGCTCGCGATCTCGACGGTACTATTCTGGCGACCGGCTTCCCGTTCAAAGCAAAACAGTACGCCACTACCTACATCAACATCGTCGGCA (double strand) [suhB gene fragment]
binding (+/- 30 mM acetyl phosphate, 37 C 30 min, 6% PAGE in 0.5x TBE, GelRed stain): no binding
